# Results as given in patent publication US20250264471A1 (INDI MOLECULAR, published 2025).
# Numbered stars: 1 amine (or outer) side, 2 acyl side, 3 side chain; on linkers, the order of the positions; unused ones are H or OH. Bridge positions count the residues as written; N and C are the ends. Square brackets hold non-standard residues; d marks the D form. Primed or numbered codes have the meaning given here. Ends that are not written are not given here. I, II: the chains in the order shown. * marks the point of attachment. Az8″ = 2-amino-10-azidodecanoic acid (azido amino acid), [N-]=[N+]=NCCCCCCCC[C@H](N[*:1])C(=O)[*:2]; Butanoyl(4-ethynyl) = C#CCCCC(=O)*; Biotin′ = not defined here; Pra = C#CC[C@H](N)C(=O)O; C8N3 = not defined here; 5HA = not defined here; Az8 = not defined here
# B1: biotinylated anchor ligand Az8-VFYRLGY-Biotin (peptide)
# peptide: [Az8″]VFYRLGY-biotin
# notes: also called anchor peptide; biotinylated anchor peptide
# B2: Akt triligand (biotinylated) (designed binder)
# peptide 1: {5HA-C8N3}-VFYRLGY-{Biotin′}
# peptide 2: Ac-[Pra]FWFLRG-NH2
# peptide 3: {Ac-C8N3}-RHERI-NH2
# modifications: triazole II:N-II:1; reading uncertain; also: triazole to a chain's N-terminus
# notes: Assembled from 5HA-Biligand-Bio and Ac-C8N3-RHERI-CONH2; also called branched triligand
# B3: 5HA-Biligand-Bio (Akt biligand) (designed binder)
# peptide 1: {Butanoyl(4-ethynyl)-Az8}-VFYRLGY-biotin
# peptide 2: Ac-[Pra]FWFLRG-NH2
# modifications: triazole II:N-II:1; reading uncertain; also: mixture of diastereomers
# notes: Branched peptide, mixture of diastereomers; also called biotinylated biligand
# Columns and labels:
# Akt1-S473E [1] = target: T1, Akt1-S473E (H. sapiens, UniProt P31749 118-480 (human entry)); experiment: ELISA
# T1 construct: Partially active Akt1 kinase domain expressed in Hi5 insect cells from pVLAKT.2; also called Akt-S473E; AktS473E
# T1 chain: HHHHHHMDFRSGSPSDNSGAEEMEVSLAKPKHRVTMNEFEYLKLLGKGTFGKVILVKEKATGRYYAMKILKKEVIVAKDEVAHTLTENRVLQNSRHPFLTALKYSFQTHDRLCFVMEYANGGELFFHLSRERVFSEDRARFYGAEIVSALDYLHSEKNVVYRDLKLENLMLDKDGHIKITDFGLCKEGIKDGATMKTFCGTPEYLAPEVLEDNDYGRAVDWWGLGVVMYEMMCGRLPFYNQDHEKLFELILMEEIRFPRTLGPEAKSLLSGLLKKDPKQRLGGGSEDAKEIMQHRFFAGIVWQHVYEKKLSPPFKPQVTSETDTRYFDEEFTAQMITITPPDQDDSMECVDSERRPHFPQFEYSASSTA
# Akt1-S473E [2] = target: T1, Akt1-S473E; experiment: SPR (Biacore T100): biotinylated triligand on streptavidin chip, Akt1-S473E 9000 nM to 1 nM as analyte, 10 °C, from kinetic constants
# Method: For this experiment, the biotinylated triligand was immobilized on a streptavidin-derivatized biacore chip and probed with Akt-S473E at concentrations ranging from 9 μM to 1 nM.
# Triligand binding affinity was further analyzed by SPR using a Biacore T100. A Streptavidin Chip (Series S, G.E. Healthcare) was conditioned as recommended by the manufacturer. Biotinylated ligand was diluted into HBSP+ Buffer (G.E. Healthcare) to a final concentration of 100 nM and 137 RU was immobilized on the chip. Akt1-S473E was prepared as described previously and subjected to buffer exchange into HBSP+using Zeba Desalting Columns (Pierce). Serial dilutions of the enzyme were made in HBSP+ buffer (9000 nM to 1 nM) and flowed over the chip at 50 μL/minute. Binding and dissociation were carried out at 10° C. with a contact time of 360 seconds, a dissociation time of 400 seconds, and a stabilization time of 200 seconds. The response was corrected using an unmodified reference flow cell. Kinetic constants were obtained from the sensograms and used to calculate the dissociation constant.
# Akt1-S473E-T308P = target: T2, Akt1-S473E-T308P (H. sapiens, UniProt P31749 118-480 (human entry), phosphorylated at residue T308 (phosphothreonine)); experiment: kinase kinetics, Dixon plot of 1/v vs. [Triligand] with varying [ATP]; noncompetitive
# T2 construct: Fully active kinase; T308P means phospho-T308, not a proline substitution; Same construct as Akt1-S473E; also called Akt-S473E-T308P; Akt-S473E/T308P
# T2 chain: T1 chain
# Method: To determine the inhibition mode of the triligand with respect to the ATP, kinase reactions were set up with increasing concentrations of ATP. The reactions were set up in a similar manner to that described above. The concentration of Biotin-Crosstide was held constant at 25 μM and the concentration of enzyme was held at […]. The concentration of ATP ranged from 125 μM to 4 μM (125 μM, 63 μM, 32 μM, 16 μM, 8 μM, 4 μM) while the concentration of triligand varied from 0 to 10 μM (0, 1 μM, 5 μM, 10 μM). [γ-³²P]-ATP (7000 Ci/mmol, 10 μCi/μL) was added to the cold ATP stock to maintain an [ATP]ₜₒₜₐₗ/[γ-³²P]-ATP ratio of 1667. The reactions were incubated, quenched, and analyzed as described above.
# KM and Vₘₐₓ values for Akt1-S473ET308P were obtained by nonlinear regression from the results of the inhibition experiments (GraphPad). The literature values for the Michaelis constants for ATP and substrate peptide were taken from Klein 2005. The triligand Kᵢ (noncompetitive inhibition) was obtained from the negative X-intercept of the Dixon plot of 1/v vs. [Triligand] with varying [ATP]. The Kᵢ is the mean value of the observed X-intercepts and the error range is the standard deviation. The triligand K_{i′}, (uncompetitive inhibition) was obtained from the intercept of the Dixon plot of 1/v vs. [Triligand] with varying [Peptide]. […]
# Akt1-S473E [3] = target: T1, Akt1-S473E; experiment: ELISA: Akt-S473E on Ni-NTA plate, biotinylated peptide titrated, SA-HRP
# Method: 3 μg of Akt-S473E was added to each well in a HisSorb Ni-NTA plate (Qiagen) in 50 μL of ELISA blocking buffer (25 mM Tris-CI (pH=7.5), 150 mM NaCl, 10 mM MgCl₂, 0.1% (v/v) Tween-20, and 4 mg/mL BSA). 50 μL of imidazole blocking buffer (25 mM Tris-CI (pH=7.5), 150 mM NaCl, 10 mM MgCl₂, 0.1% (v/v) Tween-20, 100 mM imidazole, and 4 mg/mL BSA) was added to the control wells. After 18 hours at 4° C., the wells were washed with ELISA blocking buffer and 50 μL of each ligand dilution was added in ELISA blocking buffer. The ligands were bound at 4° C. for 120 minutes followed by three washed in ELISA blocking buffer. 50 μL of horseradish peroxidase-conjugated streptavidin (SA-HRP, Thermo) was added (1:5000 dilution in ELISA blocking buffer) and incubated for 70 minutes at 4° C. The wells were washed three times in TBST (Tris-buffered saline+0.2% Tween-20) and once in TBS (Tris-buffered saline). 50 μL of peroxidase substrate (KPL) was added to generate the final signal which was quenched in 1 M H₂SO₄ and quantitated on a 96-well plate reader at λ=450 nm. The Net A450 was calculated by subtracting the A450 of each blank well (No Akt-S473E) from the experimental well. The data were fit by non-linear regression in GraphPad Prism.
binder,measurement,setting,value
B1,Kd,Akt1-S473E [1],25 µM
B2,Kd,Akt1-S473E [2],0.2 µM
same,Ki,Akt1-S473E-T308P,4 µM
B3,fold improvement in affinity relative to the anchor peptide,Akt1-S473E [3],> 100 fold
